From publication PMC2790542

Test system: O=C(O)/C=C\Cl
Assay: purified protein
Conditions: active site

## cis-3-chloroacrylic acid dehalogenase (cis-CaaD) (coryneform bacterium)
  Km: 200 ± 15 µM
  kcat: 5.9 ± 0.1 s⁻¹
  kcat/Km: 29000 M⁻¹ s⁻¹
